Measurements from patent US20130130922.
Read-outs that look alike come from different tables or passages of the source.

Columns and labels:
[1] = molecular target: M.SssI Q142A/N370A Q142A,N370A (Spiroplasma sp.?) (UniProt P15840); settings: Ado-11-amine 160-320 uM, no Mg, MTase:DNA 3.6:1, Hin6I protection
[2] = molecular target: M.SssI Q142A/N370A Q142A,N370A (Spiroplasma sp.?) (UniProt P15840); settings: Ado-6-amine 40 uM, Hin6I protection
[3] = molecular target: M.SssI (original) (Spiroplasma sp.?) (UniProt P15840); settings: transalkylation ~2 orders of magnitude lower than double mutant; AdoMet analogs; DNA for this comparison not explicitly stated
[4] = molecular target: M.SssI Q142A/N370A Q142A,N370A (Spiroplasma sp.?) (UniProt P15840)
M.HpaII (original) = molecular target: T1, M.HpaII (original) (UniProt P15446); settings: ~2 orders of magnitude lower transalkylation than double mutant
T1 sequence: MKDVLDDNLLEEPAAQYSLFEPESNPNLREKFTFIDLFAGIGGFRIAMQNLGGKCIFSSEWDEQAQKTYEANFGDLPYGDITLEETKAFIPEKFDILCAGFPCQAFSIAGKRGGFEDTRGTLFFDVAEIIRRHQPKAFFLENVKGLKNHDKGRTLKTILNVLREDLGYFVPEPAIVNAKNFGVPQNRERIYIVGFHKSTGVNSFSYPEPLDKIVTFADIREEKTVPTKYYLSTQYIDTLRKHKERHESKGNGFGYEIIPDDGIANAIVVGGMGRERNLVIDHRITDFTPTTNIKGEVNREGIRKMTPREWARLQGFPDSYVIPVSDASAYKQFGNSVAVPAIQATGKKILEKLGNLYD

Sequence of M.SssI Q142A/N370A Q142A,N370A (Spiroplasma sp.?) (P15840 whole entry Q142A/N370A): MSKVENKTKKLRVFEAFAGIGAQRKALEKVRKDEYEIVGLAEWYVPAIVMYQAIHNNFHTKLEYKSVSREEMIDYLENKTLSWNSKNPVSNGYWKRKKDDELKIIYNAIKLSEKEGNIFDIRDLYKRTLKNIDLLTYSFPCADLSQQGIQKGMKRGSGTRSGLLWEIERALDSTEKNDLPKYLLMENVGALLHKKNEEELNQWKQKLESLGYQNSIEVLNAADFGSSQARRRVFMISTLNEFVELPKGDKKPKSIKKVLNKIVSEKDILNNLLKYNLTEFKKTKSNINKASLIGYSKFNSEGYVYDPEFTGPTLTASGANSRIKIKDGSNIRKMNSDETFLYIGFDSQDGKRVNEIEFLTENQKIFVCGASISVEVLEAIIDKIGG
Sequence of M.SssI (original) (Spiroplasma sp.?) (P15840 whole entry): as the sequence (P15840 whole entry Q142A/N370A) above, with A142Q, A370N counted along it

Substance 1343 bp DNA fragment with 18 SssI sites has an activity [1] of 50 % protected, an activity ([2]; 10 mM MgCl2, MTase:DNA 2:1, 37 C 2 h) of 30 % protected and an activity ([2]; no MgCl2, MTase:DNA 2:1, 37 C 2 h) of 70 % protected. The binding signal (fold of Q142A/N370A) [3] was 0.01.
“Control-Sss nonspecific fragment (no target sites)” was tested, and the activity ([4]; nonspecific probe, same conditions) was under 1 % recovered.
Substance “Control-Sss specific fragment (two SssI sites)” has an activity ([4]; Ado-6-amine 50 uM, 1450 nM enzyme, 37 C 30 min, with human genomic DNA) of 80 % recovered.
With DNA with CCGG sites (unspecified) the binding signal (fold of Q104A/N335A) (M.HpaII (original)) was 0.01.
